The nature of data set [1]: confocal microscopy, apical marker gp135, MDCKII. The conditions noted are these: glycan lost; control: wild type.
The nature of data set [2]: immunoblot of PNGase F-treated MDCKII lysates, densitometry. The conditions noted are these: glycan lost; control: wild type.
A short description of data set [3]: immunoblot after 24 h 2 μM MG132. Conditions: glycan lost; control: wild type. On the technique in general: Immunoblotting shows a protein as a band on a membrane.
A short description of data set [4]: cycloheximide chase, immunoblot, MDCKII. The conditions noted are these: glycan lost; control: wild type.
A short description of data set [5]: confocal microscopy after 12 h cycloheximide. The conditions noted are these: glycan lost; control: wild type.
Data set [6] in a line: immunoblot, high vs low glucose medium, MDCKII. Conditions: glycan lost; control: wild type.
A short description of data set [7]: immunoblot of ABCC11 WT, with/without PNGase F, MDCKII. Conditions: glycan lost; control: high glucose medium.
Data set [8] in a line: immunoblot, ABCC11-EGFP in MDCKII, PNGase F-treated lysates. Conditions: glycan lost; control: untreated cells.
A short description of data set [9]: immunoblot, non-tagged ABCC11, adenovirus-infected MDCKII. Conditions: glycan lost; control: untreated cells.

ABCC11 (MRP8): Q838: the localisation_or_trafficking result in [1] is recorded as “no change”. Also, the “expression_or_secretion, percent_of_wt” value in data set [2] is recorded as “no change”.
With ABCC11 (MRP8): Q838/844, the “other: MG132-sensitive degradation, fold_change” value in [3] is recorded as “increases, about 2-fold vs no significant difference”. For the same substance, the “degradation_or_half_life, half_life” value in data set [4] is given as “decreases, about 6.2 vs about 12”. In addition, the degradation_or_half_life result in [5] was “decreases”. Further, in [6], the “other: glucose sensitivity of protein level” value is reported as “abolishes”. Besides, the “expression_or_secretion, percent_of_wt” value in [2] is reported as “decreases”.
Turning to ABCC11 (MRP8): Q844, in data set [1], the localisation_or_trafficking result is “no change”. Further, the “expression_or_secretion, percent_of_wt” value in data set [2] is on record as “no change”.
For ABCC11 (MRP8): low glucose medium, in [7], the expression_or_secretion result was “decreases”.
As for “ABCC11 (MRP8): tunicamycin (0.8, 4.0 μg/mL)”, in data set [8], the expression_or_secretion result is “decreases”.
For ABCC11 (MRP8): tunicamycin (4.0 μg/mL), the “expression_or_secretion, other: percent of untreated control” value in data set [9] was “decreases”.

(Values after PMC4900533.)
